Experimental findings from paper PMC3795964 (Journal of molecular biology, 2013) are described below.

The test addresses 6XHIS-tagged Dbp2 (S. cerevisiae, UniProt P24783 1-546). Kind of test: pull-down.

6XHIS-tagged Dbp2, sequence (P24783 whole entry): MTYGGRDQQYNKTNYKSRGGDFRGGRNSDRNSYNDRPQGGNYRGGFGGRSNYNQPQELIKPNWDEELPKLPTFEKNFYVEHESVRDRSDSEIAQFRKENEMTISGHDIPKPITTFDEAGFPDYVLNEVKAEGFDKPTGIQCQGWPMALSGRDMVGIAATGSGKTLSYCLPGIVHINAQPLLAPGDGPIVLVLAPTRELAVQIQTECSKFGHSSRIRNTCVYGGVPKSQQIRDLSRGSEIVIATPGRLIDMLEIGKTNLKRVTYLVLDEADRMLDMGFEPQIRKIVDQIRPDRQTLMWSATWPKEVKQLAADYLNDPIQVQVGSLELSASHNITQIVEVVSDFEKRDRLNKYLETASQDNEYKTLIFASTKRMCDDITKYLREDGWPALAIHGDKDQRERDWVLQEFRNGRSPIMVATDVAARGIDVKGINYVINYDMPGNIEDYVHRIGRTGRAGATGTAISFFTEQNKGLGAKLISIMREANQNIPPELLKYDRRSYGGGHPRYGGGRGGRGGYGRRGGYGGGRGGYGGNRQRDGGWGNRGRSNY

B1: GST-Yra1 C (domain or fragment, S. cerevisiae, UniProt Q12159 124-226, looked up)
chain: ITFKNGELARRAVERFNGSPIDGGRSRLRLNLIVDPNQRPVKSLADRIKAMPQKGGNAPRPVKRGPNRKAAMAKSQNKPKREKPAKKSLEDLDKEMADYFEKK
With B1, the binding result is “binds”.

B2: GST-tagged Yra1 (full length) (natural protein, S. cerevisiae, UniProt Q12159 1-226, looked up)
chain: MSANLDKSLDEIIGSNKAGSNRARVGGTRGNGPRRVGKQVGSQRRSLPNRRGPIRKNTRAPPNAVARVAKLLDTTREVKVNVEGLPRDIKQDAVREFFASQVGGVQRVLLSYNERGQSTGMANITFKNGELARRAVERFNGSPIDGGRSRLRLNLIVDPNQRPVKSLADRIKAMPQKGGNAPRPVKRGPNRKAAMAKSQNKPKREKPAKKSLEDLDKEMADYFEKK
Turning to B2, the binding result was “binds”.
